Data reported in patent US20210246194A1.

Biological target: HIV-1 JRFL gp140 Recombinant protein (HIV-1 JRFL)
Experiment: Attana Cell A200 QCM; IgG captured on anti-human IgG Fc; gp140 at 25, 50 and 100 nM; 1:1 fit

Binder	Kd
7B2 IgG (antibody, V domains shown) VH: QVQLVQSGGGVFKPGGSLRLSCEASGFTFTEYYMTWVRQAPGKGLEWLAYISKNGEYSKYSPSSNGRFTISRDNAKNSVFLQLDRLSADDTAVYYCARADGLTYFSELLQYIFDLWGQGARVTVSS VL: DIVMTQSPDSLAVSPGERATIHCKSSQTLLYSSNNRHSIAWYQQRPGQPPKLLLYWASMRLSGVPDRFSGSGSGTDFTLTINNLQAEDVAIYYCHQYSSHPPTFGHGTRVEIK	2.9 nM
7B2GL IgG (antibody, V domains shown) VH: QVQLVESGGGLVKPGGSLRLSCAASGFTFSEYYMTWIRQAPGKGLEWVSYISKNGEYSKYSPSSNGRFTISRDNAKNSLYLQMNSLRAEDTAVYYCARADGLTYFSELLQYIFDLWGQGTLVTVSS VL: DIVMTQSPDSLAVSLGERATINCKSSQTLLYSSNNRHSIAWYQQKPGQPPKLLIYWASMRLSGVPDRFSGSGSGTDFTLTISSLQAEDVAVYYCHQYSSHPPTFGQGTKVEIK	2.9 nM
